Measured values taken from patent US20210087281A1 (AGOMAB THERAPEUTICS, published 2021).
One block for each binder: values may come before it.

How the values were obtained:
[1] = biological target: T1, native mouse MET on living cells (mouse, UniProt P16056 25-1379); test: flow cytometry, MLP29 cells
T1 construct: whole, on cells; also called Mouse cells (MLP29); mouse epithelial cells expressing MET
Method in brief: (§1)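 Detection used a phycoerythrin-labelled anti-human IgG1 secondary and flow cytometry, measuring binding of chimeric antibodies to native MET on live A549 (human) or MLP29 (mouse) cells. Positive controls were a mouse anti-human MET and a goat anti-mouse MET antibody, each with a PE-labelled secondary.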

[2] = biological target: T2, native human MET on living cells (human, UniProt P08581 25-1390); test: cell-based or functional assay
[3] = biological target: T1, native mouse MET on living cells; test: cell-based or functional assay
[4] = biological target: T2, native human MET on living cells; test: cell-based or functional assay; remark: listed apart in the source
[5] = biological target: T1, native mouse MET on living cells; test: cell-based or functional assay; remark: listed apart in the source
[6] = biological target: T3, human MET-Fc (R&D Systems) (human, UniProt P08581 25-932); test: competition ELISA, hMET-Fc in solid phase, competitor 0.3 nM biotinylated hHGF
T3 construct: extracellular domain; bought chimeric protein; also called hMET; not shown: Fc portion of human IgG1
Method in brief: (§2)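 An ELISA format measured how well mAbs (0-120 nM) displaced N-terminus-biotinylated HGF from plate-bound receptor. Results are given as the concentration producing 50% competition and as IMAX, the saturating maximum percentage.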

[7] = biological target: T2, native human MET on living cells; test: cell-based or functional assay; remark: listed apart in the source
[8] = biological target: T1, native mouse MET on living cells; test: cell-based or functional assay; remark: listed apart in the source
[9] = biological target: human MET ECD mutant I (mutations 6, 7, 8) (human) (UniProt P08581); test: ELISA, MET ECD in solid phase, mAb 0-50 nM
[10] = biological target: human MET ECD mutant J (mutations 6, 7) (human) (UniProt P08581); test: ELISA, MET ECD in solid phase, mAb 0-50 nM
[11] = biological target: T4, mouse MET-Fc (R&D Systems) (mouse, UniProt P16056 25-929, limits assumed); test: competition ELISA, mMET-Fc in solid phase, competitor 0.3 nM biotinylated mHGF
T4 construct: bought chimeric protein; also called mMET; not shown: Fc part
Method in brief: as §2

[12] = biological target: T2, native human MET on living cells; test: cell-based or functional assay; remark: listed apart in the source
[13] = biological target: T1, native mouse MET on living cells; test: cell-based or functional assay; remark: listed apart in the source
[14] = biological target: T2, native human MET on living cells; test: flow cytometry, A549 cells
Method in brief: as §1

[15] = biological target: T5, human MET ECD (human, UniProt P08581 25-932); test: ELISA, MET ECD in solid phase, mAb 0-20 nM
T5 construct: range 1-932; recombinant ECD made by the applicants; the stated range begins at residue 1, so it includes the signal peptide of the entry; also called hMET; hMET ECD
Method in brief: (§3)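 Solid-phase ELISA; analyte = protein A-purified chimeric llama/human IgG1 from transient mammalian transfection, titrated in solution onto immobilized MET ECD.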

[16] = biological target: T6, mouse MET ECD (mouse, UniProt P16056 25-931); test: ELISA, MET ECD in solid phase, mAb 0-20 nM
T6 construct: range 1-931; recombinant ECD made by the applicants; the stated range begins at residue 1; also called mMET; mMET ECD
Method in brief: as §3

T2 sequence (P08581 25-1390): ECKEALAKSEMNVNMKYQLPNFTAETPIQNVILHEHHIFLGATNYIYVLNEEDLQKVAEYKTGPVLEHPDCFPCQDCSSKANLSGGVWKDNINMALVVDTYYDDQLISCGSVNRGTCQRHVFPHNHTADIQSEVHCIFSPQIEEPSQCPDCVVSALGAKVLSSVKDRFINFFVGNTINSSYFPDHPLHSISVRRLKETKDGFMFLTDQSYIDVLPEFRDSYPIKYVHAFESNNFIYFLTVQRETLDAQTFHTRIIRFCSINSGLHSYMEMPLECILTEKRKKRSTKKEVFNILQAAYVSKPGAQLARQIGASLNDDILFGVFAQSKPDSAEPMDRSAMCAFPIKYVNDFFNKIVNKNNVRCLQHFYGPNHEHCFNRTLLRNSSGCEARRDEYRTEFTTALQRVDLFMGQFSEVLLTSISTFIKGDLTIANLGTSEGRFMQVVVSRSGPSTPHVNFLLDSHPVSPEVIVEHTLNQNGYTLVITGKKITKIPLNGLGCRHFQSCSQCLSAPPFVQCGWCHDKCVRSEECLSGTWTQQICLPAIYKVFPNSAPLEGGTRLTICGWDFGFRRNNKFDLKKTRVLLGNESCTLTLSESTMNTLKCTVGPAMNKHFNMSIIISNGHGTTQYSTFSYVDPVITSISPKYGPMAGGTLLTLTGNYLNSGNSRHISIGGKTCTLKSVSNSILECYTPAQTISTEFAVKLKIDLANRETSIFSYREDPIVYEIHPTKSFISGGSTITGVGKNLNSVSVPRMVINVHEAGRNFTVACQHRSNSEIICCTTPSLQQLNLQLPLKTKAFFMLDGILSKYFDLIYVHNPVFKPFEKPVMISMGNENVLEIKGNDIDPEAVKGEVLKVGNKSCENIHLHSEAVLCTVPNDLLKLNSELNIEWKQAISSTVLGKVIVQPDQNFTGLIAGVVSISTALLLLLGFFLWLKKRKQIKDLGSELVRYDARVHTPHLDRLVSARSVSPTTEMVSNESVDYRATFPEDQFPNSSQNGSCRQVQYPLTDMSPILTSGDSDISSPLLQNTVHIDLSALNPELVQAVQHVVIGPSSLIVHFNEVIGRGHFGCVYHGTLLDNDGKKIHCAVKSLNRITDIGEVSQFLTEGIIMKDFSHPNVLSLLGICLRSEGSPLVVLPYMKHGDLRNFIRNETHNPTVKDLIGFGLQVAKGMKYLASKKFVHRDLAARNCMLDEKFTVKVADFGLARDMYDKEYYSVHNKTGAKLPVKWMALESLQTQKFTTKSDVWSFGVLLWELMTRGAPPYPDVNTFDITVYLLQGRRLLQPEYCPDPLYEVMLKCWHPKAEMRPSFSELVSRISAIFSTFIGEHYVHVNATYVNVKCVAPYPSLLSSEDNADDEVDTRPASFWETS
T5 sequence (P08581 25-932 limits assumed, form in doubt): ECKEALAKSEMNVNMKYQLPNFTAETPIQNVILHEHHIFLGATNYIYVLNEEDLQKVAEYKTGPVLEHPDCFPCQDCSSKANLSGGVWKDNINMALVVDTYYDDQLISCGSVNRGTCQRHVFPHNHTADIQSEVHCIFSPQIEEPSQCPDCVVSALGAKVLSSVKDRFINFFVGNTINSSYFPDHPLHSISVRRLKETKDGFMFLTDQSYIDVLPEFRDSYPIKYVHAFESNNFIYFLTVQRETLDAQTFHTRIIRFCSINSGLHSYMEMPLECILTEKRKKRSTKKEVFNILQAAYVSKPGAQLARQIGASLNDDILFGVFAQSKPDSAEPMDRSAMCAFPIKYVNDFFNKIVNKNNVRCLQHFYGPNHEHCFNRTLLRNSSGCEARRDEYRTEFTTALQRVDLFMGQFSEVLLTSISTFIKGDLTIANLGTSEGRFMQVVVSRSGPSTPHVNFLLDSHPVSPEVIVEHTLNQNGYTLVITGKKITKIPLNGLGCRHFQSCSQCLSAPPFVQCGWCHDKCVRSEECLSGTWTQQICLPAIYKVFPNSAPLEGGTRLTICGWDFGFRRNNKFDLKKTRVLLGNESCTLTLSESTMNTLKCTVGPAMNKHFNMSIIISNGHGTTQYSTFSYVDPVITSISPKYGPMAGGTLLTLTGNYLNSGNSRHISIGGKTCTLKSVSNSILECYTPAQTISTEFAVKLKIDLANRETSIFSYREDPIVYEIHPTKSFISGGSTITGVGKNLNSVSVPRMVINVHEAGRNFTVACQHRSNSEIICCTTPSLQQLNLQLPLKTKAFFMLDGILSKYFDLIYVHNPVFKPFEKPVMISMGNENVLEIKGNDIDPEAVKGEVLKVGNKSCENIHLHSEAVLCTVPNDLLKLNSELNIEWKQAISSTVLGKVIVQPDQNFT
T3 sequence (P08581 25-932): as the sequence (P08581 25-932 limits assumed, form in doubt) above

- EC50 [1]: 0.214 nM
- EMAX [1]: 116 % relative to control
- scatter score 0-4, HPAF-II, 0.001 nM [2]: 0 score
- scatter score 0-4, HPAF-II, 0.004 nM [2]: 0 score
- scatter score 0-4, HPAF-II, 0.012 nM [2]: 1 score
- scatter score 0-4, HPAF-II, 0.037 nM [2]: 2 score
- scatter score 0-4, HPAF-II, 0.111 nM [2]: 3 score
- scatter score 0-4, HPAF-II, 0.333 nM [2]: 4 score
- scatter score 0-4, HPAF-II, 1.000 nM [2]: 4 score
- scatter score 0-4, HPAF-II, 3.000 nM [2]: 4 score
- scatter score 0-4, HPAF-II, 9.000 nM [2]: 4 score
- scatter score 0-4, MLP29, 0.001 nM [3]: 0 score
- scatter score 0-4, MLP29, 0.004 nM [3]: 0 score
- scatter score 0-4, MLP29, 0.012 nM [3]: 0 score
- scatter score 0-4, MLP29, 0.037 nM [3]: 1 score
- scatter score 0-4, MLP29, 0.111 nM [3]: 2 score
- scatter score 0-4, MLP29, 0.333 nM [3]: 4 score
- scatter score 0-4, MLP29, 1.000 nM [3]: 4 score
- scatter score 0-4, MLP29, 3.000 nM [3]: 4 score
- scatter score 0-4, MLP29, 9.000 nM [3]: 4 score
- branches per spheroid, LOC cells, 0.5 nM [4]: 13.7 branches
- branches per spheroid, LOC cells, 2.5 nM [4]: 19 branches
- branches per spheroid, LOC cells, 12.5 nM [4]: 22.3 branches
- branches per spheroid, MLP29 cells, 0.5 nM [5]: 24.7 branches
- branches per spheroid, MLP29 cells, 2.5 nM [5]: 34.3 branches
- branches per spheroid, MLP29 cells, 12.5 nM [5]: 29.3 branches
- IC50 [6]: 0.49 nM
- IMAX [6]: 63.2%
- phospho-MET ELISA EC50, A549 cells [7]: 0.41 nM
- phospho-MET ELISA EMAX (% HGF activity), A549 cells [7]: 95.7%
- phospho-MET ELISA EC50, MLP29 cells [8]: 0.37 nM
- phospho-MET ELISA EMAX (% HGF activity), MLP29 cells [8]: 97.8%
- % binding (EMAX) compared to WT MET [9]: 100 % WT MET ECD
- % binding (EMAX) compared to WT MET [10]: 91.2 % WT MET ECD
- IC50 [11]: 0.53 nM
- IMAX [11]: 62.9%
- EC50 [14]: 0.296 nM
- EMAX [14]: 117 % relative to control
- EC50 [15]: 0.067 nM
- EMAX (OD450) [15]: 2.83 AU
- EC50 [16]: 0.057 nM
- EMAX (OD450) [16]: 2.98 AU
B1: 71G3 chimeric llama-human IgG1 mAb (antibody, V domains shown)
VH: QVQLVESGGGLVQPGGSLRVSCAASGFTFSTYYMSWVRQAPGKGLEWVSDIRTDGGTYYADSVKGRFTMSRDNAKNTLYLQMNSLKPEDTALYYCARTRIFPSGYDYWGQGTQVTVSS
VL: QAVVTQEPSLSVSPGGTVTLTCGLSSGSVTTSNYPGWFQQTPGQAPRTLIYNTNSRHSGVPSRFSGSISGNKAALTIMGAQPEDEADYYCSLYPGSTTVFGGGTHLTVL
notes: llama VH on human IgG1 CH1-CH2-CH3, llama VL on human lambda CL
- protection from staurosporine, viability EC50, MCF10A cells [12]: 5.04 nM
- protection from staurosporine, viability EMAX, MCF10A cells [12]: 65.2%
- protection from staurosporine, viability EC50, MLP29 cells [13]: 4.85 nM
- protection from staurosporine, viability EMAX, MLP29 cells [13]: 62.3%

- EC50 [1]: 1.6 nM
- EMAX [1]: 124 % relative to control
- scatter score 0-4, HPAF-II, 0.001 nM [2]: 0 score
- scatter score 0-4, HPAF-II, 0.004 nM [2]: 0 score
- scatter score 0-4, HPAF-II, 0.012 nM [2]: 0 score
- scatter score 0-4, HPAF-II, 0.037 nM [2]: 0 score
- scatter score 0-4, HPAF-II, 0.111 nM [2]: 0 score
- scatter score 0-4, HPAF-II, 0.333 nM [2]: 0 score
- scatter score 0-4, HPAF-II, 1.000 nM [2]: 1 score
- scatter score 0-4, HPAF-II, 3.000 nM [2]: 2 score
- scatter score 0-4, HPAF-II, 9.000 nM [2]: 3 score
- scatter score 0-4, MLP29, 0.001 nM [3]: 0 score
- scatter score 0-4, MLP29, 0.004 nM [3]: 0 score
- scatter score 0-4, MLP29, 0.012 nM [3]: 0 score
- scatter score 0-4, MLP29, 0.037 nM [3]: 0 score
- scatter score 0-4, MLP29, 0.111 nM [3]: 0 score
- scatter score 0-4, MLP29, 0.333 nM [3]: 0 score
- scatter score 0-4, MLP29, 1.000 nM [3]: 1 score
- scatter score 0-4, MLP29, 3.000 nM [3]: 2 score
- scatter score 0-4, MLP29, 9.000 nM [3]: 3 score
- branches per spheroid, LOC cells, 0.5 nM [4]: 7.3 branches
- branches per spheroid, LOC cells, 2.5 nM [4]: 11.7 branches
- branches per spheroid, LOC cells, 12.5 nM [4]: 16.7 branches
- branches per spheroid, MLP29 cells, 0.5 nM [5]: 10.7 branches
- branches per spheroid, MLP29 cells, 2.5 nM [5]: 14.3 branches
- branches per spheroid, MLP29 cells, 12.5 nM [5]: 24.7 branches
- IC50 [6]: 1.86 nM
- IMAX [6]: 64.2%
- phospho-MET ELISA EC50, A549 cells [7]: 1.77 nM
- phospho-MET ELISA EMAX (% HGF activity), A549 cells [7]: 61.2%
- phospho-MET ELISA EC50, MLP29 cells [8]: 2.91 nM
- phospho-MET ELISA EMAX (% HGF activity), MLP29 cells [8]: 64.1%
- % binding (EMAX) compared to WT MET [9]: 100 % WT MET ECD
- % binding (EMAX) compared to WT MET [10]: 89 % WT MET ECD
- IC50 [11]: 2.01 nM
- IMAX [11]: 62.7%
- EC50 [14]: 2.35 nM
- EMAX [14]: 130 % relative to control
- EC50 [15]: 0.09 nM
- EMAX (OD450) [15]: 2.67 AU
- EC50 [16]: 0.062 nM
- EMAX (OD450) [16]: 2.66 AU
B2: 76H10 chimeric llama-human IgG1 mAb (antibody, V domains shown)
VH: QLQLVESGGGLVQPGGSLRVSCTASGFTFNTYYMTWVRQAPGKGLEWVSDINSGGGTYYADSVKGRFTISRDNAKNTLYLQMNSLKPEDTALYYCVRVRIWPVGYDYWGQGTQVTVSS
VL: QAVVTQEPSLSVSPGGTVTLTCGLSSGSVTTSNYPGWFQQTPGQAPRTLIYNTNNRHSGVPSRFSGSISGNKAALTITGAQPEDEADYYCSLYTGSYTTVFGGGTHLTVL
notes: as for B1
- protection from staurosporine, viability EC50, MCF10A cells [12]: > 32 nM
- protection from staurosporine, viability EMAX, MCF10A cells [12]: 22.8%
- protection from staurosporine, viability EC50, MLP29 cells [13]: > 32 nM
- protection from staurosporine, viability EMAX, MLP29 cells [13]: 27.2%
